Experimental data: patent US20090169552A1 (FRED HUTCHINSON CANCER RESEARCH CENTER, published 2009)

B2: MICA tetramer (recombinant MICA*001, residues 1-276, produced in transfected 293T cells, biotinylated and conjugated with PE-streptavidin) (ligand)
chain: EPHSLRYNLTVLSWDGSVQSGFLTEVHLDGQPFLRCDRQKCRAKPQGQWAEDVLGNKTWDRETRDLTGNGKDLRMTLAHIKDQKEGLHSLQEIRVCEIHEDNSTRSSQHFYYDGELFLSQNLETKEWTMPQSSRAQTLAMNVRNFLKEDAMKTKTHYHAMHADCLQELRRYLKSGVVLRRTVPPMVNVTRSEASEGNITVTCRASGFYPWNITLSWRQDGVSLSHDTQQWGDVLPDGNGTYQTWVATRICQGEEQRFTCYMEHSGNHSTHPVPSGK
modifications: glycosylated (secreted by 293T cells); BirA enzymatic biotinylation, conjugated with phycoerythrin (PE)-streptavidin
notes: Residues 1-276 probably count on the mature protein; also called MICA tetramers; PE-MICA tetramer

Tests used:
[1] = target: T1, Siderocalin, expressed in bacteria, P80188
T1 chain: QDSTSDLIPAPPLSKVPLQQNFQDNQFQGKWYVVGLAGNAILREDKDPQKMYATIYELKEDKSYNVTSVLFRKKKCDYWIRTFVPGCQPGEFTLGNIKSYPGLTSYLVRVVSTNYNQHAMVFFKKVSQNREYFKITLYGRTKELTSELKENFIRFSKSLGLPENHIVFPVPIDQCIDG

[2] = target: T2, ERp5 (endoplasmic reticulum protein 5) on the cell surface (Homo sapiens (Human), UniProt Q15084 20-440); test: flow cytometry of freshly isolated tumor cells
T2 construct: Also stands for the native 50 kD ERp5 solubilised from U266 outer cell membranes in the MICA bead purification; also called surface ERp5; disulfide isomerase-related protein P5
T2 sequence: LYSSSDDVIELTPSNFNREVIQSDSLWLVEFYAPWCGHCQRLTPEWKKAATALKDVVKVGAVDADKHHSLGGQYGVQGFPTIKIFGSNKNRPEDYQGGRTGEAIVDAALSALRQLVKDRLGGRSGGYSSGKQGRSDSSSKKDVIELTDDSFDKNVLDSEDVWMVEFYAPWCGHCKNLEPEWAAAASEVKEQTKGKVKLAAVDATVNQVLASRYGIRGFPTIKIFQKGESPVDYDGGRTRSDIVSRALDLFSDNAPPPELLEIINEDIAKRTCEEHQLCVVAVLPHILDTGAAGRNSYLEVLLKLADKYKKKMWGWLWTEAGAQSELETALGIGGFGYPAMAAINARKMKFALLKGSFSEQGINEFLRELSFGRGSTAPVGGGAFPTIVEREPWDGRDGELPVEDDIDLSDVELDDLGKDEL

[3] = target: B2; test: flow cytometry, tetramer staining of NKL cells
From the text: Early studies of NKG2D interactions with its ligands utilized randomly oligomerized recombinant MICA (rMICA) or ULBP family ligands produced as immunoglobulin fusion proteins, all of which bound exclusively to NKG2D expressing lymphocytes (Bauer et al., 1999; Cosman et al., 2001). Testing MICA and ULBP2 tetramers, the inventors confirmed that these high avidity reagents stained the NKL NK cell line and that binding was entirely accounted for by NKG2D (FIG. 1A). However, in the course of screening ˜40 cell lines by flow cytometry, the inventors observed that MICA, but not ULBP2, tetramers stained cell types lacking NKG2D. The highest fluorescence intensities were recorded with U266 myeloma cells and all of 10 epithelial tumor lines tested and correlated with relatively large amounts of cell surface MICA. Only monocytic U937 cells were identified as negative for tetramer binding (FIG. 1A). The MICA tetramers were prepared using glycosylated protein secreted by transfected 293T cells. However, tetramer binding was not reduced after cleavage of cell surface polypeptide-linked carbohydrates but was inhibited in the presence of unglycosylated rMICA (FIG. 1A).

[4] = target: T3, C39S mutant of ERp5 fragment 1-118 (Homo sapiens (Human), UniProt Q15084 20-137, C39S); test: purified proteins mixed, non-reducing SDS-PAGE
T3 construct: Position 39 counts on the mature protein; not shown: N-terminal hexahistidine tract
T3 sequence: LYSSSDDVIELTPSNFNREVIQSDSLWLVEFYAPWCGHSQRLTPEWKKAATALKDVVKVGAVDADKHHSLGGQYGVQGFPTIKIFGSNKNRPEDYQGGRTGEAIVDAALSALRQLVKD
From the text: ERp5 activity assays. Ectodomain-only MICA, Siderocalin, and CD94-NKG2A were expressed in bacteria and purified as described (Li et al., 2001). […] All ERp5 sequences were fused to N-terminal hexahistidine tracts and included a C-terminal stop codon to prevent expression of the adjacent hexahistidine in pET22(b). Recombinant proteins were purified by metal affinity (BD Talon, Clontech) and size exclusion chromatography (Superdex 200, Pharmacia).

B1: recombinant ERp5 (residues 1-421 of the mature protein), bacterially produced, N-terminal hexahistidine (protein)
chain: LYSSSDDVIELTPSNFNREVIQSDSLWLVEFYAPWCGHCQRLTPEWKKAATALKDVVKVGAVDADKHHSLGGQYGVQGFPTIKIFGSNKNRPEDYQGGRTGEAIVDAALSALRQLVKDRLGGRSGGYSSGKQGRSDSSSKKDVIELTDDSFDKNVLDSEDVWMVEFYAPWCGHCKNLEPEWAAAASEVKEQTKGKVKLAAVDATVNQVLASRYGIRGFPTIKIFQKGESPVDYDGGRTRSDIVSRALDLFSDNAPPPELLEIINEDIAKRTCEEHQLCVVAVLPHILDTGAAGRNSYLEVLLKLADKYKKKMWGWLWTEAGAQSELETALGIGGFGYPAMAAINARKMKFALLKGSFSEQGINEFLRELSFGRGSTAPVGGGAFPTIVEREPWDGRDGELPVEDDIDLSDVELDDLGKDEL
disulfide bond reduction, non-reducing gel electrophoresis [1]: ERp5 did not affect unrelated proteins with relatively accessible intrachain (Siderocalin) or intrachain and interchain (CD94-NKG2A) disulfide bonds

B2
binding result [2]: binds

B3: NKG2D on NKL NK cells (receptor, human, UniProt P26718 1-216, looked up)
chain: MGWIRGRRSRHSWEMSEFHNYNLDLKKSDFSTRWQKQRCPVVKSKCRENASPFFFCCFIAVAMGIRFIIMVTIWSAVFLNSLFNQEVQIPLTESYCGPCPKNWICYKNNCYQFFDESKNWYESQASCMSQNASLLKVYSKEDQDLLKLVKSYHWMGLVHIPTNGSWQWEDGSILSPNLLTIIEMQKGDCALYASSFKGYIENCSTPNTYICMQRTV
notes: whole, on cells; On cells paired with DAP10 according to the description; also called KLRK1
binding result [3]: binds

B4: isolated MICA α3 domain (residues 187-274), expressed in bacteria (ligand)
chain: NVTRSEASEGNITVTCRASGFYPWNITLSWRQDGVSLSHDTQQWGDVLPDGNGTYQTWVATRICQGEEQRFTCYMEHSGNHSTHPVPS
notes: Numbering probably of the mature protein (Li et al., 1999); also called α3 membrane-proximal domain
binding result [4]: binds
